Reference: patent publication US20250340659A1 (PETMEDIX, published 2025)
Where a chain is given by its changes, count along the chain named.

T1: canine OX40L, full length membrane form, expressed on HEK293 cells (canine)
T1 chain: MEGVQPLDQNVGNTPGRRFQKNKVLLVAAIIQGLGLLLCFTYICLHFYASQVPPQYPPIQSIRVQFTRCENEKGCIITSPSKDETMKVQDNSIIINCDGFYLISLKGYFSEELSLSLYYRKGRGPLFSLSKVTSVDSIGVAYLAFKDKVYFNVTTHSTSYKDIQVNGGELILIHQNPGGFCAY

B1: PMX089 (antibody, V domains shown)
VH: EVQLVESGGDLVKPGGSLRLSCVASGFTFNNFHMSWVRQAPGKGLQWVAFINSDGGNRNYADVVKGRVTISRDYAKNTLYLQINSLRAEDTAVYYCAGGSIWTHFDYWGQGTLVTVSS
VL: SYVLTQLPSMSVTLRQTARITCEGDIIASKRIYWYQQKLGQVPVLLIYADSSRPSGIPERFSGASSGNTATLTISGALAEDEADYYCQVWDNNANSVFGGGTHLTVL
B2: PMX092 (antibody, V domains shown)
VH: B1 VH with F32L, G56R, V63A, A97T
VL: B1 VL with I32V, L46F, S51N, N92S
B3: PMX084 (antibody, V domains shown)
VH: EVQLVESGGDLVKPEGSLRLSCVVSGFTFSNYDMSWVRQAPGKGLQWVAFISNDGRITGYTDAVEGRFTISRDNAKNTLYLQMNSLRTEDTAVYYCAKETSRWGFDYWGQGTLVTVSS
VL: SYVLTQLPSVSVTLRQTARITCGGDSIGSKNVYWHQQKLGQAPVLIIYDDSSRPSGIPERFSGANSGNTATLTISGALAEDEADYYCQVWDSSTSVFGGGTHLTVL
notes: also called PMX84
B4: PMX086 (antibody, V domains shown)
VH: EVQLVESGGDLVKPGGSLRLSCVASGFTFSSYHMSWVRQAPGKGLQWVAFINSAESSTTYADAVKGRFTISRDNAKNTLYLQMNSLRAEDTAVYYCAGGYIWTHFDYWGQGTLVTVSS
VL: B3 VL with S26I, N31S, H35Y, K38N, D49R, S51T, S52N, S55T, N65S
B5: PMX087 (antibody, V domains shown)
VH: B4 VH with Q3H, S31N, A54G, E55G, S57G, T59S, N74Y, N77S, G98S
VL: B3 VL with S26I, H35Y, V44I, D49R, S52N, S55T, N65S
B6: PMX082 (antibody, V domains shown)
VH: EVQLVESGGDLVKPGGSLRLSCVASGFTFSSHHMTWVRQAPGKGLQWVAYIVSGGTNTNYADAVKGRFTISRDNAKNTLYLQMNSLRAEDTAVYYCASDLVLAVGAPFYWGQGTLVTVSS
VL: SYELTQPPSVNVTLRETAHITCGGDSIGRKYVQWIQQNPGQAPVVIIYKDINRPTGIPERFSGANSGNTATLTISGALAEDEADYYCQVGDSGTKAVFGEGTQLTVL
notes: also called PMX82
B7: PMX083 (antibody, V domains shown)
VH: EVQLVESGGDLVKPGGSLRLSCVASGFTFRTYHMSWVRQAPGKGLQWVAYITRDGISTTYTDAVKGRFTISRDNAKNTLFLQMNSLRADDTAVYYCASDLVLVLGAPFYWGQGTLVTVSS
VL: B6 VL with R15G, I51S
notes: also called PMX83
B8: PMX062 (antibody)
heavy: EVQLVESGGDLVKPEGSLRLSCVVSGFTFSSYDMSWVRQAPGKGLQWVAYISFDGRSTSYTDVVKGRFTISRDNAKTTLYLQMNTLRIEDTAVYYCAKLSSSGWSMDYWGHGTSLFVSSASTTAPSVFPLAPSCGSTSGSTVALACLVSGYFPEPVTVSWNSGSLTSGVHTFPSVLQSSGLYSLSSMVTVPSSRWPSETFTCNVAHPASKTKVDKPVPKRENGRVPRPPDCPKCPAPESLGGPSVFIFPPKPKDTLLIARTPEVTCVVVDLGREDPEVQISWFVDGKQMQTAKTQPREEQFNGTYRVVSVLPIGHQDWLKGKQFTCKVNHIGLPSPIERTISKARGQAHQPSVYVLPPSREELSKNTVSLTCLIKDFFPPDIDVEWQSNGQQEPESKYRTTPPQLDEDGSYFLYSKLSVDKSRWQRGDTFICAVMHEALHNHYTQKSLSHSPGK
VL: SYVLTQLPSKNVTLKQPAHITCGGDNIGSKSVHWYQQKLGQAPVLIIYYDSSRPTGIPERFSGANSGNTATLTISGALAEDEADYYCQVWDSSASVFGGGTHLTVL
notes: also called PMX62
B9: PMX085 (antibody, V domains shown)
VH: EVKLVESGGDLVKPEGSLRLSCVVSGFTFSRYGMSWVRQAPGKGLQWVAYISSDGRSSSYTDAVQGRFTISSDNAKNTLYLQMNSLTTEDTAVYYCAKLGRGFNFNFWGQGTLVTVSS
VL: B8 VL
notes: also called PMX85
B10: PMX088 (antibody, V domains shown)
VH: EVQLVESGGDLVKPGGSLRLSCVASGFTFNTYHMNWVRQAPGKGLHWVAFINSGGTGTGYSDTVKGRFTISRDYAKNTLYLQMNSLRAEDTAVYYCVSGSIWTHFDYWGQGTLVTVSS
VL: SYVLTQLPSVSMTLRQTAHITCGGDIIGSKSVYWYQQKLGQAPVLIIYRDTNRPTGIPERFSGASSGNTATLTISGALAEDEADYYCQVWDSNTQAVFGGGTHLTVL
B11: PMX094 (antibody, V domains shown)
VH: DIHLVESGGDLVRPGGSLRLSCVASGFTFSNLHMNWVRQAPGKGLQWVAFINSGGSGTTYADVVRGRFTISRDYAKNTLYLQMNSLRADDTAVYYCASGSIWTHFDYWGQGTLVTVSS
VL: B10 VL with Y2F, M12V, H19R, I26S, T51S, F61I, N93S, T94N, Q95K, V97M
B12: PMX093 (antibody, V domains shown)
VH: B4 VH with A54G, E55G, S56G, S57G, T59N, N74Y, A97V, Y100S
VL: B1 VL with I32V, A49G, S65N, N92S, N93G, A94T
B13: PMX103 (antibody, V domains shown)
VH: B11 VH with D1E, I2V, H3Q, Y80N, N84T, D89E, S98T
VL: B10 VL with Y2F, M12V, H19R, I26S, T51S, F61I, N93S, T94N, Q95K, V97M
B14: PMX099 (antibody, V domains shown)
VH: B11 VH with D1E, I2V, H3Q, N31S, L32Y, G57S, D89E
VL: B10 VL with Y2F, M12V, H19R, I26S, S29T, T51S, N93S, T94N, Q95K, V97M
B15: PMX096 (antibody, V domains shown)
VH: B10 VH with T56S, G57D, G59S, S61A, K65Q, V97A, S100Y
VL: B10 VL with M12V, L45M, T51N, A77S, N93R, V97L
B16: PMX095 (antibody, V domains shown)
VH: B11 VH with D1A, I2V, H3Q, N31S, L32Y, G57S, Y80F, D89E, S98I
VL: SFVLTQLPSVSVTLRQTARITCGGDIIGSKNVYWYQQRLGQAPVLILYRDTNRPTGIPERFSGASSGNTATLTISGALAEDEADYYCQVWDNSNKAMFGGGTHLTVL
B17: PMX101 (antibody, V domains shown)
VH: B11 VH with D1E, I2V, H3Q, L32Y, N35S, G57S, T59S, V63A, D89E
VL: B16 VL with N31S, Y35F, R38K, V44I, L47I, T51D, T73I, D84H, N92S, N94S
B18: PMX100 (antibody, V domains shown)
VH: B11 VH with D1E, I2V, H3Q, N31S, L32Y, N35S, G57S, D89E
VL: B16 VL with I26S, N31S, L47I, T51S

Legend:
[1] = molecular target: T1, canine OX40L, full length membrane …; assay: cell-based or functional assay
[2] = molecular target: T1, canine OX40L, full length membrane …; assay: flow cytometry
Experimental: (§1) CHO supernatants diluted in FACS buffer (PBS containing 3% FBS) at 1, 5 or 10 μg/ml were used to screen for their binding capacity to canine OX40L using a cell-based assay. In brief, HEK293 or MEF cells (or any other commonly used cell lines) expressing canine OX40L at the cell surface are incubated with 100 μll of FACS buffer containing the candidate antibody for 30′ on ice. Cells are washed with 150 μl FACS buffer followed by centrifugation at 300 g for 3 min. The cell pellet is resuspended in FACS buffer containing a 1:1000 dilution of a fluorescently labelled secondary antibody recognising the canine Fc region of the test antibody for 30 min in the dark, followed by washing with 150 μl FACS buffer. Cells are resuspended in FACS buffer and flow cytometry performed using either a […] cytometer, followed by data analysis using FlowJo (FIG. 6 and Table 4).

[3] = molecular target: T1, canine OX40L, full length membrane …; assay: flow cytometry, OX40L HEK minus WT HEK
Experimental: as §1

| Binder | % Signal Inhibition Average [1] [%] | % Signal Inhibition Rep1 [1] [%] | % Signal Inhibition Rep2 [1] [%] | % Signal Inhibition Rep3 [1] [%] | GEO mean OX40L expressing HEK [2] | GEO mean difference [3] |
| --- | --- | --- | --- | --- | --- | --- |
| B1 | 47.4 | 43.3 | 49.7 | 49.1 | – | – |
| B2 | 34.7 | 33.3 | 39.2 | 31.6 | – | – |
| B3 | 60.7 | 47.2 | 66.9 | 68 | 622000 | 610000 |
| B4 | 18.3 | 5.85 | 35.1 | 14 | 857000 | 849000 |
| B5 | 32.6 | 29.8 | 46.2 | 21.6 | 1.05e+06 | 1.04e+06 |
| B6 | 72.3 | 72.8 | 71.9 | 72.1 | 544000 | 531000 |
| B7 | 71.1 | 66 | 65.8 | 81.6 | 701000 | 690000 |
| B8 | 15 | 4.15 | 22.1 | 18.7 | 2.81e+06 | 2.78e+06 |
| B9 | 46.9 | 43.8 | 56.2 | 40.8 | 839000 | 826000 |
| B10 | 7.21 | 17 | 3.51 | 1.17 | 783000 | 775000 |
| B11 | 45.4 | 38.6 | 55 | 42.7 | – | – |
| B12 | 5.46 | 0 | -0.585 | 17 | – | – |
| B13 | 47.6 | 57.3 | 26.3 | 59.1 | – | – |
| B14 | 24.8 | 25.1 | 32.7 | 16.4 | – | – |
| B15 | 50.1 | 36.8 | 59.1 | 54.4 | – | – |
| B16 | 50.3 | 40.9 | 52.6 | 57.3 | – | – |
| B17 | 52.4 | 62.6 | 50.3 | 44.4 | – | – |
| B18 | 32.4 | 49.1 | 28.1 | 19.9 | – | – |
